This is an account of results in patent publication US20210260163A1 (ASKGENE PHARMA, published 2021).

Assay [1] deals with T1, IL-2 ("IL-2 proteins" coated on the ELISA plate) (UniProt P60568 21-153, limits assumed). Kind of assay: ELISA, IL-2 coated, Fc-mask fusion titrated, pH 6.4. On the procedure:
(§1) 10 μg/ml of IL-2 proteins in PBS were seeded to the 96-well plate at 100 μl/well and coated at 4 degree for overnight. The wells were washed by PBS three times and blocked with 100 μl 2% milk/PBS for 1 hr. Then the wells were washed three times by PBS and 100 μl protein samples with 3-fold serial dilution were added to the wells for 1 hr incubation at room temperature. After three times of PBS washing, 100 μl of HRP conjugated anti-IgG antibody were added and incubated at RT for 1 hr. Subsequently, the wells were washed again by PBS for 3 times, detection reagents were added and OD450 nm were measured.
(§2) In order to discover improved versions of the IL-2 antagonist or mask with higher folds of activations upon protease cleavage, a number of mutations in the IL-2Rβ extracellular domain were constructed.

The target in assay [2] is T1, IL-2 ("IL-2 proteins" coated on the …). Kind of assay: ELISA, IL-2 coated, pH 6.4; reference understood as wild type (SEQ ID NO: 195). On the procedure: as §1, §2
In general terms: In an ELISA, binding on a coated surface is turned into a signal by an enzyme label.

Assay [3] has the same target. Kind of assay: ELISA, IL-2 coated, pH 6.4; reference wild type. On the procedure: as §1, §2
Assay [4] shares this target. Kind of assay: ELISA, IL-2 coated, Fc-mask fusion titrated, pH 7.4. The protocol:
as §1, §2

The target is the same in assay [5]. Kind of assay: ELISA, IL-2 coated, pH 7.4. The protocol: as §1, §2
For assay [6] the target is unchanged. Kind of assay: ELISA, IL-2 coated, pH 7.4 and pH 6.4; reference understood as wild type (SEQ ID NO: 195). On the procedure: as §1, §2

Positions count from the first letter of the chain named. Names and notes keep the numbering of the source.

Broadly, the Kd is the equilibrium constant for the complex coming apart. Low values mean a tighter complex, high ones a looser complex.

T1 sequence (P60568 21-153 limits assumed): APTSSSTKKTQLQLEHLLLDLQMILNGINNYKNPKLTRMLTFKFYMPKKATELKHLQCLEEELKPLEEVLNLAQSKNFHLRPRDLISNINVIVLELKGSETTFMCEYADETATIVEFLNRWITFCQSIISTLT

B1: Fc with LALA and hole mutation (L234A-L235A-Y407T) fused with beta subunit containing mutation (E136Q) (SEQ ID NO: 204), homodimer (Fc fusion)
chain: DKTHTCPPCPAPEAAGGPSVFLFPPKPKDTLMISRTPEVTCVVVDVSHEDPEVKFNWYVDGVEVHNAKTKPREEQYNSTYRVVSVLTVLHQDWLNGKEYKCKVSNKALPAPIEKTISKAKGQPREPQVYTLPPSREEMTKNQVSLTCLVKGFYPSDIAVEWESNGQPENNYKTTPPVLDSDGSFFLTSKLTVDKSRWQQGNVFSCSVMHEALHNHYTQKSLSLSPGKGGGGSGGGGSGGGGISSGLLSSGGSGGSLSGRSDNHGGGGSAVNGTSQFTCFYNSRANISCVWSQDGALQDTSCQVHAWPDRRRWNQTCELLPVSQASWACNLILGAPDSQKLTTVDIVTLRVLCREGVRWRVMAIQDFKPFENLRLMAPISLQVVHVETHRCNISWEISQASHYFQRHLEFEARTLSPGHTWEEAPLLTLKQKQEWICLETLTPDTQYEFQVRVKPLQGEFTTWSPWSQPLAFRTKPAALGKDT
Molecule B1 registered a Kd in assay [1] of 128 µg/mL. Besides, the “fold better binding affinity at pH 6.4” value in assay [2] came out at 2 fold.

B2: Fc-mask fusion with beta subunit containing mutation (E136Q/H138R) (SEQ ID NO: 205), homodimer (Fc fusion)
chain: B1 chain with H406R
For B2, the “fold enhancement of binding affinity at pH 6.4 against wild type” value in assay [3] is 2 fold. For the same molecule, the Kd in assay [1] came out at 105 µg/mL; in assay [4], 269 µg/mL.

B3: Fc with LALA and hole mutation (L234A-L235A-Y407T) fused with beta subunit containing mutation (S69H) (SEQ ID NO: 201), homodimer (Fc fusion)
chain: B1 chain with S337H, Q404E
The molecule B3 returned a Kd in assay [1] of 187 µg/mL. Further, the “fold better binding affinity at pH 6.4” value in assay [2] was 2 fold.

B4: Fc with LALA and hole mutation (L234A-L235A-Y407T) fused with beta subunit containing mutation (V75Q) (SEQ ID NO: 202), homodimer (Fc fusion)
chain: B1 chain with V343Q, Q404E
For B4, the binding result in assay [5] is listed as “no binding”.

B5: Fc with LALA and hole mutation (L234A-L235A-Y407T) fused with beta subunit containing mutation R15Y (SEQ ID NO: 199), homodimer (Fc fusion)
chain: B1 chain with R283Y, Q404E
In the case of B5, the binding result in assay [5] was “no binding”.

B6: Fc with LALA and hole mutation (L234A-L235A-Y407T) fused with beta subunit containing mutation (V75F) (SEQ ID NO: 203), homodimer (Fc fusion)
chain: B1 chain with V343F, Q404E
B6: in assay [5], the binding result is recorded as “no binding”.

B7: Fc with LALA and hole mutation (L234A-L235A-Y407T) fused with beta subunit containing mutation (D68E) (SEQ ID NO: 200), homodimer (Fc fusion)
chain: B1 chain with D336E, Q404E
Turning to B7, the Kd in assay [1] worked out at 118 µg/mL; in assay [4] it was 124 µg/mL. For the same molecule, the “fold increase of binding affinity at pH 7.4 and pH 6.4” value in assay [6] came to 2 fold.

B8: Fc with LALA and hole mutation (L234A-L235A-Y407T) with beta subunit (SEQ ID NO: 195), expressed as homodimer (Fc fusion)
chain: DKTHTCPPCPAPEAAGGPSVFLFPPKPKDTLMISRTPEVTCVVVDVSHEDPEVKFNWYVDGVEVHNAKTKPREEQYNSTYRVVSVLTVLHQDWLNGKEYKCKVSNKALPAPIEKTISKAKGQPREPQVYTLPPSREEMTKNQVSLTCLVKGFYPSDIAVEWESNGQPENNYKTTPPVLDSDGSFFLTSKLTVDKSRWQQGNVFSCSVMHEALHNHYTQKSLSLSPGKGGGGSGGGGSGGGGSLSGRSDNHGGGGSAVNGTSQFTCFYNSRANISCVWSQDGALQDTSCQVHAWPDRRRWNQTCELLPVSQASWACNLILGAPDSQKLTTVDIVTLRVLCREGVRWRVMAIQDFKPFENLRLMAPISLQVVHVETHRCNISWEISQASHYFERHLEFEARTLSPGHTWEEAPLLTLKQKQEWICLETLTPDTQYEFQVRVKPLQGEFTTWSPWSQPLAFRTKPAALGKDT
notes: also called WT
Consider B8, for which the Kd in assay [1] came to 269 µg/mL; in assay [4], 219 µg/mL.
